For two molecules, Kd results are on record in article PMC2791412 (Biochemistry, 2009).

Read-outs that look alike come from different tables or passages of the source. No end group written: not given here.

The target of assay [1] is T1, calmodulin (native vertebrate CaM) (vertebrate, UniProt P0DP23 1-149). Description: other fluorescence titration.
For assay [2], the target named is T1, calmodulin (native vertebrate CaM). Put plainly: other fluorescence titration. This is another data set of the same source.

B1: BIQ, fluorescent reporter containing an IQ domain sequence derived from neuromodulin (domain or fragment)
chain: AHKAATKIQASFRGHITRKKLKGEKKDDVQ
modifications: also: fluorescent reporter
The Kd is the equilibrium constant for the complex coming apart. With B1, the Kd in assay [1] is 2.9 µM; in assay [2], 2.4 µM.

B2: BIQPEP, fluorescent reporter containing an IQ domain sequence derived from PEP19 (domain or fragment)
chain: TERAAVAIQSQFRKFQKKKAGSQS
modifications: also: fluorescent reporter
For B2, the Kd came out at 11 µM in assay [1] and 1130 µM in assay [2].
